Where two headings read alike, the source gives them in different places.
What was measured:
Test in all cases: X-ray crystallography
[1] = biological target: T1, L1750 (LACV L protein, residues 1-1750) (La Crosse virus (strain …, UniProt A5HC98 1-1750))
[2] = biological target: T1, L1750 (LACV L protein, residues 1-1750); remark: listed apart in the source
[3] = biological target: T1, L1750 (LACV L protein, residues 1-1750); remark: listed apart in the source

T1 sequence (A5HC98 1-1750): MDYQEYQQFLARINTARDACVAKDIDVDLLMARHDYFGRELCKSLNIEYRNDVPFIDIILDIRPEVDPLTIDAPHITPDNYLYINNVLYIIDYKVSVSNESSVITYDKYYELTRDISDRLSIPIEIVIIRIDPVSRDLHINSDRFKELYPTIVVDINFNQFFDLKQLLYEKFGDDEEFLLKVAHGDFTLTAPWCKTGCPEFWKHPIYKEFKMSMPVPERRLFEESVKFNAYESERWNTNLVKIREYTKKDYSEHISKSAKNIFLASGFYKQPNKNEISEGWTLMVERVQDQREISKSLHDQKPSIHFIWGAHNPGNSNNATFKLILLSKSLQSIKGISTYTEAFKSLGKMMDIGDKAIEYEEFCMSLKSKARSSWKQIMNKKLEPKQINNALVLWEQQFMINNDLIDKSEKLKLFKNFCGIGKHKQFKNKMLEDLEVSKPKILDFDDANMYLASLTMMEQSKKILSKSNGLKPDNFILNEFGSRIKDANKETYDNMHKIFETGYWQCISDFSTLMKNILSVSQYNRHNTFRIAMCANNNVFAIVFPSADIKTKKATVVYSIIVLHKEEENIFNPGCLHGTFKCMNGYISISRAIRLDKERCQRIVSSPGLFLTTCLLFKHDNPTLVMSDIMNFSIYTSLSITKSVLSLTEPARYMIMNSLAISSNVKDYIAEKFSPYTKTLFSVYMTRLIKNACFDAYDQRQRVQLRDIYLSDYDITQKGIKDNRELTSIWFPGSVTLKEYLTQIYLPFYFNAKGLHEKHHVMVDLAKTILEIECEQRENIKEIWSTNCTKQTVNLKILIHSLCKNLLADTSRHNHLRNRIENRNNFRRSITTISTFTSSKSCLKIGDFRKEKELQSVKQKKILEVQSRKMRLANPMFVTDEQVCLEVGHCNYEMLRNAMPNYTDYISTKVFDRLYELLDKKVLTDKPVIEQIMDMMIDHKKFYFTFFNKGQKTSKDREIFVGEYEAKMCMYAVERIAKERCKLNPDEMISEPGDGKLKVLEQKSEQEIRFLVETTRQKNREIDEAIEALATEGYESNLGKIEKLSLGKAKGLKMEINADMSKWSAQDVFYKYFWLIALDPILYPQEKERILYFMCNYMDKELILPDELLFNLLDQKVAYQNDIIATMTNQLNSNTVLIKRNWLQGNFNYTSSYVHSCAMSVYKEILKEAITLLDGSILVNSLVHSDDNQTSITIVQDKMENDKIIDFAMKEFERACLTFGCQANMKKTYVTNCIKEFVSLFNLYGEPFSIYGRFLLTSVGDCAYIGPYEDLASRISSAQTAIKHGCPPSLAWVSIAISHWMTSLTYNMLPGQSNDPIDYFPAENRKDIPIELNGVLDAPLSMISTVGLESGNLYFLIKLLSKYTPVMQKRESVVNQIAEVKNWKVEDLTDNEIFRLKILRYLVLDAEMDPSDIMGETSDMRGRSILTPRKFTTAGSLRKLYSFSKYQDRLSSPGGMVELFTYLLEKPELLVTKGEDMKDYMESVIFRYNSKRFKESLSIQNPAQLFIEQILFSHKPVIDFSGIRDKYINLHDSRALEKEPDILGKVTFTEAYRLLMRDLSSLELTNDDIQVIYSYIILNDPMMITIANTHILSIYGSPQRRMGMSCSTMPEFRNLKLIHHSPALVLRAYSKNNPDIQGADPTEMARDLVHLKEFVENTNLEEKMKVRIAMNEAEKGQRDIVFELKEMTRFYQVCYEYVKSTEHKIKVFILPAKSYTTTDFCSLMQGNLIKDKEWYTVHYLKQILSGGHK

B1: 3' vRNA 1-16 / 5' vRNA 9-16 partial duplex (mixed)
RNA 1: UUGGUAGUACACUACU
RNA 2: GCUACCAA
**Q.** Does B1 bind [1]?
**A.** binds

**Q.** Does AGUAGUGUGCU (structured_RNA) [5' vRNA 1-11] bind [2]?
**A.** binds

**Q.** Does AGUAGUGUGC (structured_RNA, 5' phosphate) [5' vRNA 1-10 (hook)] bind [3]?
**A.** binds
